In patent US20230287598A1 (TAURUS BIOSCIENCES, published 2023):
Where two headings read alike, the source gives them in different places.

T1: CXCR1 (UniProt P25024 1-350, limits assumed)
T1 sequence (looked up): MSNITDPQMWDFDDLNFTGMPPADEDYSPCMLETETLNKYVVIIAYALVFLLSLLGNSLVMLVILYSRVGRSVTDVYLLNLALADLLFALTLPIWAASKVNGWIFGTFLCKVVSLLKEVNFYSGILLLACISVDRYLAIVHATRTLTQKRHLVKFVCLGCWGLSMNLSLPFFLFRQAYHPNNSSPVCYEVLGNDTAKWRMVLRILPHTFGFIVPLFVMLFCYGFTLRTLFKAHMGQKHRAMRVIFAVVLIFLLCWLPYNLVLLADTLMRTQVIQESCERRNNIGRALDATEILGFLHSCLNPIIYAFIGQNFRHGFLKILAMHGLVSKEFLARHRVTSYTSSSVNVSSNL

T2: CXCR1 (UniProt P25024 1-350, limits assumed)
T2 sequence (looked up): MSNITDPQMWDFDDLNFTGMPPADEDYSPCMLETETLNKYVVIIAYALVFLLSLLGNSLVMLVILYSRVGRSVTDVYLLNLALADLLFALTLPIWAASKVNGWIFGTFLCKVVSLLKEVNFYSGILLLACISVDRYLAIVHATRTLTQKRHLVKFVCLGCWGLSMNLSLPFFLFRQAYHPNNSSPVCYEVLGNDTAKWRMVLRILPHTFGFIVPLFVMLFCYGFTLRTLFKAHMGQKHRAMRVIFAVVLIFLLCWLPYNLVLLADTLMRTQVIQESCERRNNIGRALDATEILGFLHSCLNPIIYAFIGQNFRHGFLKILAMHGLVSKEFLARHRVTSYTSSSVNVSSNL

B1: VH4-34 MutF IL-8 5R6E CD1cow (antibody, human IgG1)
VH: QVQLREWGAGLLKPSETLSLTCTASGFSLSDKAVGWIRQPPGKGLEWIGEINHSGSTNYNPSLKSRVTISVDTSKNQFSLKLSSVTAADTAVYYCTSVHQETKKYQSPRSAKELRCQCIKTYSKPFHPKFIKELRVIESGPHCANTEIIVKLSDGRELCLDPKENWVQRVVEKFLKRAENSGSGSYTYNYEWHVDVWGQGLLVTVSS
light: QAVLNQPSSVSGSLGQKVTISCSGSSSNIGNNYVSWYQQLPGTAPRTLIYGDTKRPSGIPDRFSGSKSGTSATLGITGLQTGDEADYYCASAEDSSSNAVFGSGTTLTVLGQPKAAPSVTLFPPSSEELQANKATLVCLISDFYPGAVTVAWKADSSPVKAGVETTTPSKQSNNKYAASSYLSLTPEQWKSHRSYSCQVTHEGSTVEKTVAPTECS
B2: VH4-34+CDR3-IL8_CDR1-G31DY32K_CDR2-E50S_Q5RQ6E / VL1-51 S2A, T5N, P8S, A12G, A13S, P14L, K46R, L47T, D51G, N52D, N53T IgG (antibody)
VH: QVQLREWGAGLLKPSETLSLTCAVYGGSFSDKYWSWIRQPPGKGLEWIGSINHSGSTNYNPSLKSRVTISVDTSKNQFSLKLSSVTAADTAVYYCTSVHQETKKYQSPRSAKELRCQCIKTYSKPFHPKFIKELRVIESGPHCANTEIIVKLSDGRELCLDPKENWVQRVVEKFLKRAENSGSGSYTYNYEWHVDVWGQGLLVTVSS
light: QAVLNQPSSVSGSLGQKVTISCSGSSSNIGNNYVSWYQQLPGTAPRTLIYGDTKRPSGIPDRFSGSKSGTSATLGITGLQTGDEADYYCASAEDSSSNAVFGSGTTLTVLGQPKAAPSVTLFPPSSEELQANKATLVCLISDFYPGAVTVAWKADSSPVKAGVETTTPSKQSNNKYAASSYLSLTPEQWKSHRSYSCQVTHEGSTVEKTVAPTECS
notes: also called BID 38; VH4-34 MutE IL-8 5R6E31D32K50S
B3: VH4-34+CDR3-IL8_CDR1-Cow_CDR2-Cow / VL1-51 S2A, T5N, P8S, A12G, A13S, P14L, K46R, L47T, D51G, N52D, N53T IgG (antibody)
VH: QVQLQQWGAGLLKPSETLSLTCTASGFSLSDKAVGWIRQPPGKGLEWLGSIDTGGNTGYNPSLKSRVTISVDTSKNQFSLKLSSVTAADTAVYYCTSVHQETKKYQSPRSAKELRCQCIKTYSKPFHPKFIKELRVIESGPHCANTEIIVKLSDGRELCLDPKENWVQRVVEKFLKRAENSGSGSYTYNYEWHVDVWGQGLLVTVSSAS
light: QAVLNQPSSVSGSLGQKVTISCSGSSSNIGNNYVSWYQQLPGTAPRTLIYGDTKRPSGIPDRFSGSKSGTSATLGITGLQTGDEADYYCASAEDSSSNAVFGSGTTLTVLGQPKAAPSVTLFPPSSEELQANKATLVCLISDFYPGAVTVAWKADSSPVKAGVETTTPSKQSNNKYAASSYLSLTPEQWKSHRSYSCQVTHEGSTVEKTVAPTECS
notes: also called BID 39; VH4-34 MutD IL-8 CDR1cow CDR2cow
B4: VH4-34+CDR3-IL8_CDR2 E50S / VL1-51 S2A, T5N, P8S, A12G, A13S, P14L, K46R, L47T, D51G, N52D, N53T IgG (antibody)
VH: QVQLQQWGAGLLKPSETLSLTCAVYGGSFSGYYWSWIRQPPGKGLEWIGSINHSGSTNYNPSLKSRVTISVDTSKNQFSLKLSSVTAADTAVYYCTSVHQETKKYQSPRSAKELRCQCIKTYSKPFHPKFIKELRVIESGPHCANTEIIVKLSDGRELCLDPKENWVQRVVEKFLKRAENSGSGSYTYNYEWHVDVWGQGLLVTVSSAS
light: QAVLNQPSSVSGSLGQKVTISCSGSSSNIGNNYVSWYQQLPGTAPRTLIYGDTKRPSGIPDRFSGSKSGTSATLGITGLQTGDEADYYCASAEDSSSNAVFGSGTTLTVLGQPKAAPSVTLFPPSSEELQANKATLVCLISDFYPGAVTVAWKADSSPVKAGVETTTPSKQSNNKYAASSYLSLTPEQWKSHRSYSCQVTHEGSTVEKTVAPTECS
B5: VH4-34+CDR3-IL8_CDR1-G31DY32K_CDR2-E50S / VL1-51 S2A, T5N, P8S, A12G, A13S, P14L, K46R, L47T, D51G, N52D, N53T IgG (antibody)
VH: QVQLQQWGAGLLKPSETLSLTCAVYGGSFSDKYWSWIRQPPGKGLEWIGSINHSGSTNYNPSLKSRVTISVDTSKNQFSLKLSSVTAADTAVYYCTSVHQETKKYQSPRSAKELRCQCIKTYSKPFHPKFIKELRVIESGPHCANTEIIVKLSDGRELCLDPKENWVQRVVEKFLKRAENSGSGSYTYNYEWHVDVWGQGLLVTVSSAS
light: QAVLNQPSSVSGSLGQKVTISCSGSSSNIGNNYVSWYQQLPGTAPRTLIYGDTKRPSGIPDRFSGSKSGTSATLGITGLQTGDEADYYCASAEDSSSNAVFGSGTTLTVLGQPKAAPSVTLFPPSSEELQANKATLVCLISDFYPGAVTVAWKADSSPVKAGVETTTPSKQSNNKYAASSYLSLTPEQWKSHRSYSCQVTHEGSTVEKTVAPTECS
notes: also called BID 37; VH4-34 MutC IL-8 31D32K50S

How the values were obtained:
CXCR1 [1] = biological target: T1, CXCR1; experiment: cell-based or functional assay
CXCR1 [2] = biological target: T2, CXCR1; experiment: cell-based or functional assay; remark: listed apart in the source
CXCR1 [3] = biological target: T2, CXCR1; experiment: flow cytometry, supernatant at 5 nM IgG
Method: (§1) Briefly, a cell line expressing functionally validated CXCR1 derived from U2OS cells was obtained from DiscoveRx and cultured per manufacturer’s instructions (Cat# 93-0226C3, DiscoveRx Corporation, Freemont, CA). The parental cell line U2OS was obtained from ATCC and cultured under the same conditions as the CXCR1 cells. Cell culture supernatants were then tested for binding to cells by flow cytometry. The adherent U2OS or CXCR1-U2OS cells were dissociated with Accutase (Innovative Cell Technologies, Inc., San Diego, CA), neutralized with an equal volume of media containing 10% serum, centrifuged at 1000 g, and resuspended in PBS with 2%BSA. Next, cells were dispensed into microtiter plates to achieve between 30,000 to 300,000 cells per well, centrifuged again, and resuspended in cell culture supernatant containing expressed IgG, or a dilution of IgG-containing cell culture supernatant. A fluorescent-conjugated anti-Human Fc antibody was used to detect binding of the expressed antibody to cells.
The ability of IL-8 within CDR3 in these antibodies to specifically bind CXCR1 receptor was evaluated by comparing the median fluorescence of cells expressing CXCR1 as compared to the median fluorescence of parental cells. The ratio of these median AFU was calculated as previously in Table 19.

CXCR1 [4] = biological target: T2, CXCR1; experiment: flow cytometry, supernatant at 5 nM IgG; remark: listed apart in the source
Method: as §1
The ability of IL-8 within CDR3 in these antibodies to specifically bind CXCR1 receptor was evaluated by comparing the median fluorescence of cells expressing CXCR1 as compared to the median fluorescence of parental cells.

Binder	CXCR1 activation, luminescence, 0.1 nM IL-8 domains (CXCR1 [1]) [luminescence]	CXCR1 activation, luminescence, 0.5 nM IL-8 domains (CXCR1 [1]) [luminescence]	CXCR1 activation, luminescence, 2.2 nM IL-8 domains (CXCR1 [1]) [luminescence]	CXCR1 activation, luminescence, 9.9 nM IL-8 domains (CXCR1 [1]) [luminescence]	CXCR1 activation, luminescence, 44 nM IL-8 domains (CXCR1 [1]) [luminescence]	CXCR1 activation, luminescence, 200 nM IL-8 domains (CXCR1 [1]) [luminescence]	CXCR1 activation, luminescence at 0.4 nM IL-8 domains (CXCR1 [2])	CXCR1 activation, luminescence at 1.6 nM IL-8 domains (CXCR1 [2])	CXCR1 activation, luminescence at 6.25 nM IL-8 domains (CXCR1 [2])	CXCR1 activation, luminescence at 25 nM IL-8 domains (CXCR1 [2])	CXCR1 activation, luminescence at 100 nM IL-8 domains (CXCR1 [2])	Specific Binding (CXCR1-Cell median AFU / Parental Cell median AFU) (CXCR1 [3])	Specific Binding (CXCR1-Cell median AFU / Parental Cell median AFU) (CXCR1 [4])
B1	4180	6620	13500	21900	24000	25000	–	–	–	–	–	–	–
B2	–	–	–	–	–	–	6190	8160	13500	21000	25900	4	–
B3	–	–	–	–	–	–	6310	7400	10200	15400	21600	–	13
B4	–	–	–	–	–	–	–	–	–	–	–	–	5
B5	–	–	–	–	–	–	5420	5710	7160	11200	15500	–	18
